In one assay the target is T1, rat OX40 on T cells (rat, UniProt P15725 20-271).
T1 construct: whole, on cells
T1 sequence (looked up): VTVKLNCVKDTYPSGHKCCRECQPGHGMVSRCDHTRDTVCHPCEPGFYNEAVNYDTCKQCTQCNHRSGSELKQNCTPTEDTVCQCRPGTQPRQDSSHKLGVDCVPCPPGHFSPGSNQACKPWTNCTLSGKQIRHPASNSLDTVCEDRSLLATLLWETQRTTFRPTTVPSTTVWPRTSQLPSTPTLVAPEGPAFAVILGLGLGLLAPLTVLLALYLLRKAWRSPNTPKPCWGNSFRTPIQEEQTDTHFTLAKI
The experiment in a line: flow cytometry, Alexa Fluor 647-labeled antibody on peripheral blood T cells. In general terms: Flow cytometry measures light scatter and fluorescence of single cells or particles in a stream.

A further assay has as its target T2, mouse OX40 on T cells (mouse, UniProt P47741 20-272).
T2 construct: whole, on cells
T2 sequence (looked up): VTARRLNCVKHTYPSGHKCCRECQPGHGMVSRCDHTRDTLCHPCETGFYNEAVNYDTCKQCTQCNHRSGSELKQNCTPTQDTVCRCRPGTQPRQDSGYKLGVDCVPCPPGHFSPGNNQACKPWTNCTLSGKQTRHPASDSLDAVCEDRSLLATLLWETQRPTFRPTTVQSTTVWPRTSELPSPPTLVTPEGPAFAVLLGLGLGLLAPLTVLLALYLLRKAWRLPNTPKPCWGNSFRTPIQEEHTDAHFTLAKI
The assay is described as above.

Assay [1] has as its target T3, cynomolgus monkey OX40 on T cells (cynomolgus monkey).
T3 construct: whole, on cells; also called cynomolgus OX40
Briefly: flow cytometry, Alexa Fluor 647-labeled antibody on cynomolgus monkey T cells, assay 1. The protocol: (§1) Cells were blocked with 10% human, cynomolgus monkey, rat or mouse serum respectively in PBS for 15 minutes at 4° C. and plated in a 96 well plate at the equivalent of 100 μL of whole blood per reaction.

In assay [2] the target is T3, cynomolgus monkey OX40 on T cells. The experiment in a line: flow cytometry, Alexa Fluor 647-labeled antibody on cynomolgus monkey T cells, assay 2. As for the experimental part: as §1
The target is the same in assay [3]. Briefly: flow cytometry, Alexa Fluor 647-labeled antibody on cynomolgus monkey T cells, average (± SD). As for the experimental part: as §1
For assay [4] the target is unchanged. The experiment in a line: flow cytometry, Alexa Fluor 647-labeled antibody on cynomolgus monkey T cells, average in molar units. The protocol:
as §1

Assay [5] concerns the target T4, Human OX40 (Sino Biological Inc) (human, UniProt P43489 29-216, limits assumed).
T4 construct: Bought soluble protein used as SPR analyte; also called huOX40
T4 sequence: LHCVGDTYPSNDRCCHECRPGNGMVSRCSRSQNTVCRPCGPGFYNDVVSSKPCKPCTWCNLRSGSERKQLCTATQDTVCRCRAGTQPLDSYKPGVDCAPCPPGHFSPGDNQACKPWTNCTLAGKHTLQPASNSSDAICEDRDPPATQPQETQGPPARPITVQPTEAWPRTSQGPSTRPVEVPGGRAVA
The experiment in a line: SPR (Biacore), antibody captured via anti-human Fc, huOX40 analyte. The protocol:
(§2) The binding kinetics of the anti-OX40 antibodies was measured using surface plasmon resonance (SPR) on a Biacore 3000 instrument (GE Healthcare). Anti-human Fc (GE Healthcare) was immobilized on a CM5 sensor chip via amine-based coupling using manufacturer provided protocol. Anti-OX40 antibody was captured at a level of 300-400 resonance units (RU). Antibody binding was measured to human OX40 (Sino Biological Inc). Two-fold concentration series of huOX40 with a range of either 18.75 to 300 nM or 6.25 to 200 nM were used for the experiments. Sensorgrams for binding of OX40 were recorded using an injection time of 2 minutes with a flow rate of 30 μl/min, at a temperature of 25° C., and with a running buffer of 10 mM HEPES, pH 7.4, 150 mM NaCl, and 0.005% Tween 20. After injection, disassociation of the ligand from the antibody was monitored for 600 seconds in running buffer. The surface was regenerated between binding cycles with a 40 μl injection of 3 M Magnesium Chloride.
(SPR reads the build-up and loss of mass on a sensor chip optically.)

Assay [6] addresses T4, Human OX40 (Sino Biological Inc). The description is as above. The protocol:
as §2
Variants were tested by Biacore as described above to evaluate binding kinetics and in co-stimulation assays to determine biological activity.
This is another data set of the same source.

Assay [7] addresses T5, human OX40 expressed on the cell surface (Hut78-hOX40 cells; human T cells) (human, UniProt P43489 29-277).
T5 construct: Hut78 T cell line stably transfected or retrovirally transduced with human OX40, or native OX40 on human peripheral blood T cells; also called huOX40; Hut78-OX40
T5 sequence: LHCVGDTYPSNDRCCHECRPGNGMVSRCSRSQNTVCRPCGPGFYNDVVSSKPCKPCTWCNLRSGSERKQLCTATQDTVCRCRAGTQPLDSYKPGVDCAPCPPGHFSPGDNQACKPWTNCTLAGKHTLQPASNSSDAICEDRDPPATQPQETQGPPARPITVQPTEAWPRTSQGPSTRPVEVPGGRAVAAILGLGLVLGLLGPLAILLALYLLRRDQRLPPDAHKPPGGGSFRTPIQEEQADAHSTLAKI
The experiment in a line: flow cytometry titration of OX40L-flag on Hut78-hOX40 cells, 3-fold dilutions from 10 ug/mL, detected with anti-flag-Alexa Fluor 555. The protocol:
(§3) After 30 min of incubation at 4 C, cells were washed twice in Wash Buffer (PBS/0.5% FBS/2 mM EDTA), followed by data acquisition on FACSCantoII flow cytometer (BD). Data were then analyzed by Flowjo program (TreeStar) and the mean fluorescent intensity (MFI) was captured. […] A titration of OX40L-flag binding was carried out in a similar fashion, except that OX40L-flag was titrated 3 fold down starting from 10 ug/mL.

The target of assay [8] is T5, human OX40 expressed on the cell …. The experiment in a line: flow cytometry competition on Hut78-hOX40 cells: OX40L-flag titrated first, then 200 ng/mL 1A7.gr.1-Alexa Fluor 647 added; readout is the MFI of 1A7.gr.1. The protocol:
as §3
After 30 min of incubation at 4 C, cells were washed twice in Wash Buffer, followed by data acquisition on FACSCantoII flow cytometer (BD).

The results in this text go back to US20150307617A1 (Genentech, published 2015).

Where a chain is given by its changes, count along the chain named. Where two headings read alike, the source gives them in different places.

B1: 1A7.gr.1 (antibody, V domains shown)
VH: EVQLVQSGAEVKKPGASVKVSCKASGYTFTDSYMSWVRQAPGQGLEWIGDMYPDNGDSSYNQKFRERVTITRDTSTSTAYLELSSLRSEDTAVYYCVLAPRWYFSVWGQGTLVTVSS
VL: DIQMTQSPSSLSASVGDRVTITCRASQDISNYLNWYQQKPGKAPKLLIYYTSRLRSGVPSRFSGSGSGTDFTLTISSLQPEDFATYYCQQGHTLPPTFGQGTKVEIK
notes: human IgG1; 125I-labeled (radioligand assay) or Alexa Fluor 647-labeled (flow cytometry) in some assays; also called mab 1A7.gr.1; MOXR0916
As a reminder, the EC50 is the midpoint of the concentration-response curve. Take B1: the binding result in the assay with rat OX40 on T cells and with mouse OX40 on T cells was “no binding (tested: titrated from 9 µg/mL)” each time. Also, the EC50 in [1] is 0.143 µg/mL; in assay [2] it was 0.142 µg/mL; in assay [3], 0.142 µg/mL; in assay [4], 0.946 nM.

B2: 1A7.gr.2 (antibody, V domains shown)
VH: B1 VH with R72V
VL: B1 VL
notes: human Fc (captured by anti-human Fc)
By Kd is commonly meant a measure of binding affinity in units of concentration. Broadly, the koff is the first-order rate constant of dissociation. The term kon denotes a measure of how fast the partners come together. In assay [5], B2 had a Kd of 0.524 nM, a koff of 0.000233 s⁻¹ and a kon of 444000 M⁻¹ s⁻¹.

B3: 1D2.gr.2 (antibody, V domains shown)
VH: EVQLVESGPGLVKPSETLSLTCTVSGFSLTDYGVLWIRQPPGKGLEWIGMIWSGGTTDYNAAFISRVTISKDTSKNQVSLKLSSVTAADTAVYYCVREEMDYWGQGTLVTVSS
VL: B1 VL with Y32F, R55H, H92N, P96W
notes: human Fc
As for B3, in [5], binding was put at a Kd of 55.9 nM, the koff amounted to 0.0178 s⁻¹ and the kon is 319000 M⁻¹ s⁻¹.

B4: 1A7.gr.DA (antibody, V domains shown)
VH: B1 VH with S32A
VL: B1 VL
In assay [6], B4 had a Kd of 0.259 nM, a koff of 8.32e-05 s⁻¹ and a kon of 321000 M⁻¹ s⁻¹.

B5: 1A7.gr.NADA (antibody, V domains shown)
VH: B1 VH with G56A, S58A
VL: B1 VL
B5: in assay [6], the Kd stood at 0.355 nM, the koff came to 0.000108 s⁻¹ and the kon is 304000 M⁻¹ s⁻¹.

B6: 1D2.gr.3 (antibody, V domains shown)
VH: B3 VH with I37V, I48L, V67L
VL: B1 VL with Y32F, R55H, H92N, P96W
notes: human Fc
B6: in assay [5], the Kd amounted to 59.5 nM, the koff stood at 0.0163 s⁻¹ and the on-rate (kon) was found to be 273000 M⁻¹ s⁻¹.

B7: 1A7.gr.DANADA (antibody, V domains shown)
VH: B1 VH with S32A, G56A, S58A
VL: B1 VL
As for B7, in assay [6], the Kd was determined as 0.557 nM, the off-rate constant (koff) was determined as 0.000215 s⁻¹ and the kon was determined as 387000 M⁻¹ s⁻¹.

B8: 1A7.gr.NADS (antibody, V domains shown)
VH: B1 VH with G56A
VL: B1 VL
B8: in assay [6], the affinity, expressed as Kd, was 0.442 nM; the koff is 0.000121 s⁻¹; the kon is 275000 M⁻¹ s⁻¹.

B9: 1D2.gr.1 (antibody, V domains shown)
VH: B3 VH with K71V, V78F
VL: B1 VL with Y32F, R55H, H92N, P96W
notes: human Fc
Regarding B9, the binding result in assay [5] is “binds”.

B10: 1A7.gr.NGSS (antibody, V domains shown)
VH: B1 VH with D57S
VL: B1 VL
For B10, in assay [6], binding was characterised by a dissociation constant (Kd) of 0.311 nM, the koff is 0.000108 s⁻¹ and the kon is 349000 M⁻¹ s⁻¹.

B11: 1A7.gr.SGDS (antibody, V domains shown)
VH: B1 VH with N55S
VL: B1 VL
In the case of B11, in [6], the Kd was determined as 0.993 nM, the “fold loss of binding affinity (against 1A7.gr.1)” value was determined as 2 fold, the koff amounted to 0.000228 s⁻¹ and the kon stood at 230000 M⁻¹ s⁻¹.

B12: 3C8.gr.DQ (antibody, V domains shown)
VH: EVQLVQSGAEVKKPGASVKVSCKASGYAFTNYLIEWVRQAPGQGLEWIGVINPGSGDQYYSEKFKGRVTLTADTSTSTAYLELSSLRSEDTAVYYCARDRLDYWGQGTLVTVSS
VL: DIQMTQSPSSLSASVGDRVTITCHASQDISSYIVWYQQKPGKSFKGLIYHGTNLEDGVPSRFSGSGSGTDFTLTISSLQPEDFATYYCVHYAQFPYTFGQGTKVEIK
notes: also called 3C8.gr.5.DQ
In [5], B12 yielded a Kd of 8.12 nM, a koff of 0.00309 s⁻¹ and a kon of 381000 M⁻¹ s⁻¹.

B13: Human OX40L-flag (ligand, UniProt P23510 51-183, looked up)
chain: QVSHRYPRIQSIKVQFTEYKKEKGFILTSQKEDEIMKVQNNSVIINCDGFYLISLKGYFSQEVNISLHYQKDEEPLFQLKKVRSVNSLMVASLTYKDKVYLNVTTDNTSLDDFHVNGGELILIHQNPGEFCVL
notes: Made at Genentech; not shown: flag tag
By EC50 (read off the curve) is commonly meant the concentration at which the effect is half-maximal. For the molecule B13, the “EC50 (read off the curve)” value in assay [7] was roughly 0.2 µg/mL. Also, in assay [8], the “IC50 (read off the curve)” value was roughly 0.2 µg/mL.
